This passage reports Kd results from publication PMC1540706 (2006).

T1: human β2-appendage (700–937), side site mutant used for ITC (human, UniProt P63010 700-937)
T1 chain: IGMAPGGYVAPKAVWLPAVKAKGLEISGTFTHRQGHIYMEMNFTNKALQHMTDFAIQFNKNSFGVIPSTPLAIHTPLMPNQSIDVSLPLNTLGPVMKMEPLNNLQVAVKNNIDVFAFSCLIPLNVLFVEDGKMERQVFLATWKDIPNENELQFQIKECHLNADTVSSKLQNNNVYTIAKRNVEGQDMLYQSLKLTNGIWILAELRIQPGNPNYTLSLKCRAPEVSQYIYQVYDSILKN

B1: Epsin1-MD (protein)
chain: TGGKEESSLMDLADVFTTPAPPQASDPWGGPASVPTAVPVAAAASDPWGAPAVPPAADPWGGAAPTPASGDPWRPAAPTGPSVDPWGGTPAPAAGEGPTSDPWGSADGGAPVSGPPSSDPWAPAPAFSDPWGGSPAKPSSNGTAVGGFDTEPD
B2: human β2-appendage (700–937) used for ITC (domain or fragment)
chain: T1 chain with A116Y
B3: human β2-appendage (700–937), top site mutant used for ITC (domain or fragment)
chain: T1 chain with A116Y, Y189V
B4: human β2-appendage (700–937) R879A used for ITC (domain or fragment)
chain: T1 chain with A116Y, R180A
B5: β-arrestin P-long peptide (peptide)
peptide: DDDIVFEDFARQRLKGMKDD
B6: Eps15 P-short peptide (peptide)
peptide: SFGDGFADFSTL
B7: 6× His human Eps15-MD (530–791) (domain or fragment)
chain: STSSSETANLNEHVEGQSNLESEPIHQESPARSSPELLPSGVTDENEVTTAVTEKVCSELDNNRHSKEEDPFNVDSSSLTGPVADTNLDFFQSDPFVGSDPFKDDPFGKIDPFGGDPFKGSDPFASDCFFRQSTDPFATSSTDPFSAANNSSITSVETLKHNDPFAPGGTVVAASDSATDPFASVFGNESFGGGFADFSTLSKVNNEDPFRSATSSSVSNVVITKNVFEETSVKSEDEPPALPPKIGTPTRPCPLPPGKRSI
B8: amphiphysin DNF 12mer peptide (peptide)
chain: SFFEDNFVPEIS

Numbering of substitutions follows the chain as printed. Names may count otherwise.

Targets include Epsin P4; ARH peptide (UniProt Q5SW96); Epsin P1; Eps15 P-long peptide (UniProt P42566); epsinR peptide (UniProt Q14677).
Holding throughout (experiment): ITC
For orientation: In ITC the heat of successive injections is recorded.

The target in assay [1] is B2.
Assay [2] has as its target B4.
Assay [3] concerns the target T1, human β2-appendage (700–937), side site ….
The target in assay [4] is B3.
In assay [5] the target is AP2 α-appendage appendage (Mus musculus, UniProt P17427).
Chain of AP2 α-appendage appendage (P17427 701-938): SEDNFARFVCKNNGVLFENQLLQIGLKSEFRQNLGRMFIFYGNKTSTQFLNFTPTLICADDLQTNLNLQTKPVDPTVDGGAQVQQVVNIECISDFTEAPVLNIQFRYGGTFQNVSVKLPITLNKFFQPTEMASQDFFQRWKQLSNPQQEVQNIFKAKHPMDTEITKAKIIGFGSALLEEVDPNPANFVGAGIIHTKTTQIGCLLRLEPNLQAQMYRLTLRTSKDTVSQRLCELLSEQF

Take B1: in [1], the Kd – broadly, the constant that tells how readily two partners part at equilibrium – worked out at 35 µM.
B2: the Kd worked out at 160 µM in the assay with Epsin P4, 4.7 µM in the assay with ARH peptide, 131 µM in the assay with Epsin P1 and 12 µM with Eps15 P-long peptide.
In the assay with epsinR peptide, B3 displayed a Kd of 77 µM.
With B4, the Kd with ARH peptide turned out to be 5.5 µM.
Regarding B5, the results for the Kd in assay [2] and in [3] were 0.17 µM and 1.7 µM, respectively.
B6 showed a Kd in assay [4] of 59 µM.
For the molecule B7, the dissociation constant (Kd) is 11 µM in assay [4] and 18 µM in [1].
With B8, the Kd in assay [5] was found to be 2.5 µM.
